According to US20020137019A1 (NEW YORK UNIVERSITY, published 2002):

B1: ART-37 (LexA DNA binding domain fusion) (other)
chain: MKALTARQQEVFDLIRDHISQTGMPPTRAEIAQRLGFRSPNAAEEHLKALARKGVIEIVSGASRGIRLLQEEEEGLPLVGRVAAGEPLLAQQHIEGHYQVDPSLFKPNADFLLRVSGMSMKDIGIMDGDLLAVHKTQDVRNGQVVVARIDDEVTVKRLKKQGNKVELLPENSEFKPIVVDLRQQSFTIEGLAVGVIRNGDWLEFGTRARFTRGKSALLERALARPRTEVSLSAFALLSPSWYSTARAVFSVAELQSRLAALGRQVGARVLDALVAREKGARRETKVLGALLFVKGAVWKALFGKEADKLEQANDDARTFYIIEREPLINTYISVPKENSTLNCASFTAGIVEAVLTHSGFPAKVTAHWHKGTTLMIKFEEAVIARDRLEGR
notes: Clone from an LNCaP prostate cancer cell cDNA library
B2: B42-AR153-336 (receptor, rat, UniProt P15207 153-336, looked up, not shown: large carriers)
chain: LSSCSADIKDILSEAGTMQLLQQQQQQQQQQQQQQQQQQQQQQEVISEGSSSVRAREATGAPSSSKDSYLGGNSTISDSAKELCKAVSVSMGLGVEALEHLSPGEQLRGDCMYASLLGGPPAVRPTPCAPLAECKGLSLDEGPGKGTEETAEYSSFKGGYAKGLEGESLGCSGSSEAGSSGTLE
B3: B42-AR18-156 (receptor, rat, UniProt P15207 18-156, looked up, not shown: large carriers)
chain: TYRGAFQNLFQSVREAIQNPGPRHPEAASIAPPGACLQQRQETSPRRRRRQQHPEDGSPQAHIRGTTGYLALEEEQQPSQQQSASEGHPESGCLPEPGAATAPGKGLPQQPPAPPDQDDSAAPSTLSLLGPTFPGLSSC
B4: LexA-ART-27 1-45 (other, UniProt P0A7C2 1-202, looked up)
chain: MKALTARQQEVFDLIRDHISQTGMPPTRAEIAQRLGFRSPNAAEEHLKALARKGVIEIVSGASRGIRLLQEEEEGLPLVGRVAAGEPLLAQQHIEGHYQVDPSLFKPNADFLLRVSGMSMKDIGIMDGDLLAVHKTQDVRNGQVVVARIDDEVTVKRLKKQGNKVELLPENSEFKPIVVDLRQQSFTIEGLAVGVIRNGDWLMATPPKRRAVEATGEKVLRYETFISDVLQRDLRKVLDHRDKVYEQ
notes: also called ART-27 derivative 1-45
B5: LexA-ART-27 1-67 (other, UniProt P0A7C2 1-202, looked up)
chain: MKALTARQQEVFDLIRDHISQTGMPPTRAEIAQRLGFRSPNAAEEHLKALARKGVIEIVSGASRGIRLLQEEEEGLPLVGRVAAGEPLLAQQHIEGHYQVDPSLFKPNADFLLRVSGMSMKDIGIMDGDLLAVHKTQDVRNGQVVVARIDDEVTVKRLKKQGNKVELLPENSEFKPIVVDLRQQSFTIEGLAVGVIRNGDWLMATPPKRRAVEATGEKVLRYETFISDVLQRDLRKVLDHRDKVYEQLAKYLQLRNVIERLQEAKHSEL
notes: also called ART-27 derivative 1-67
B6: LexA-ART-27 46-157 (other, UniProt P0A7C2 1-202, looked up)
chain: MKALTARQQEVFDLIRDHISQTGMPPTRAEIAQRLGFRSPNAAEEHLKALARKGVIEIVSGASRGIRLLQEEEEGLPLVGRVAAGEPLLAQQHIEGHYQVDPSLFKPNADFLLRVSGMSMKDIGIMDGDLLAVHKTQDVRNGQVVVARIDDEVTVKRLKKQGNKVELLPENSEFKPIVVDLRQQSFTIEGLAVGVIRNGDWLLAKYLQLRNVIERLQEAKHSELYMQVDLGCNFFVDTVVPDTSRIYVALGYGFFLELTLAEALKFIDRKSSLLTELSNSLTKDSMNIKAHIHMLLEGLRELQGLQNFPEKPHH
B7: LexA-ART-27 68-157 (other, UniProt P0A7C2 1-202, looked up)
chain: MKALTARQQEVFDLIRDHISQTGMPPTRAEIAQRLGFRSPNAAEEHLKALARKGVIEIVSGASRGIRLLQEEEEGLPLVGRVAAGEPLLAQQHIEGHYQVDPSLFKPNADFLLRVSGMSMKDIGIMDGDLLAVHKTQDVRNGQVVVARIDDEVTVKRLKKQGNKVELLPENSEFKPIVVDLRQQSFTIEGLAVGVIRNGDWLYMQVDLGCNFFVDTVVPDTSRIYVALGYGFFLELTLAEALKFIDRKSSLLTELSNSLTKDSMNIKAHIHMLLEGLRELQGLQNFPEKPHH
B8: LexA-ART-27 127-157 (other, UniProt P0A7C2 1-202, looked up)
chain: MKALTARQQEVFDLIRDHISQTGMPPTRAEIAQRLGFRSPNAAEEHLKALARKGVIEIVSGASRGIRLLQEEEEGLPLVGRVAAGEPLLAQQHIEGHYQVDPSLFKPNADFLLRVSGMSMKDIGIMDGDLLAVHKTQDVRNGQVVVARIDDEVTVKRLKKQGNKVELLPENSEFKPIVVDLRQQSFTIEGLAVGVIRNGDWLDSMNIKAHIHMLLEGLRELQGLQNFPEKPHH
B9: LexA-ART-27 1-45/127-157 (other, UniProt P0A7C2 1-202, looked up)
chain: MKALTARQQEVFDLIRDHISQTGMPPTRAEIAQRLGFRSPNAAEEHLKALARKGVIEIVSGASRGIRLLQEEEEGLPLVGRVAAGEPLLAQQHIEGHYQVDPSLFKPNADFLLRVSGMSMKDIGIMDGDLLAVHKTQDVRNGQVVVARIDDEVTVKRLKKQGNKVELLPENSEFKPIVVDLRQQSFTIEGLAVGVIRNGDWLMATPPKRRAVEATGEKVLRYETFISDVLQRDLRKVLDHRDKVYEQDSMNIKAHIHMLLEGLRELQGLQNFPEKPHH
notes: The two fragments were joined through a BamHI site
B10: rat AR ligand binding domain (AR579-901) in pJG4-5 (receptor, UniProt P15207 579-901, looked up, not shown: large carriers)
chain: ASRNDCTIDKFRRKNCPSCRLRKCYEAGMTLGARKLKKLGNLKLQEEGENSSAGSPTEDPSQKMTVSHIEGYECQPIFLNVLEAIEPGVVCAGHDNNQPDSFAALLSSLNELGERQLVHVVKWAKALPGFRNLHVDDQMAVIQYSWMGLMVFAMGWRSFTNVNSRMLYFAPDLVFNEYRMHKSRMYSQCVRMRHLSQEFGWLQITPQEFLCMKALLLFSIIPVDGLKNQKFFDELRMNYIKELDRIIACKRKNPTSCSRRFYQLTKLLDSVQPIARELHQFTFDLLIKSHMVSVDFPEMMAEIISVQVPKILSGKVKPIYFHT
notes: range 579-901

What was measured:
[1] = target: B42-AR18-500 (rat androgen receptor N-terminus, residues 18-500, fused to the B42 activation domain) (rat) (UniProt P15207); experiment: cell-based or functional assay
[2] = target: T1, B42-AR18-500 (rat androgen receptor N-terminus, residues 18-500, fused to the B42 activation domain) (rat, UniProt P15207 18-500); experiment: modified yeast two-hybrid screen of a LexA-LNCaP cDNA library
T1 construct: range 18-500; Yeast two-hybrid bait, galactose-inducible; also called AR18-500-AD; pJG4-5:AR18-500
T1 sequence (looked up): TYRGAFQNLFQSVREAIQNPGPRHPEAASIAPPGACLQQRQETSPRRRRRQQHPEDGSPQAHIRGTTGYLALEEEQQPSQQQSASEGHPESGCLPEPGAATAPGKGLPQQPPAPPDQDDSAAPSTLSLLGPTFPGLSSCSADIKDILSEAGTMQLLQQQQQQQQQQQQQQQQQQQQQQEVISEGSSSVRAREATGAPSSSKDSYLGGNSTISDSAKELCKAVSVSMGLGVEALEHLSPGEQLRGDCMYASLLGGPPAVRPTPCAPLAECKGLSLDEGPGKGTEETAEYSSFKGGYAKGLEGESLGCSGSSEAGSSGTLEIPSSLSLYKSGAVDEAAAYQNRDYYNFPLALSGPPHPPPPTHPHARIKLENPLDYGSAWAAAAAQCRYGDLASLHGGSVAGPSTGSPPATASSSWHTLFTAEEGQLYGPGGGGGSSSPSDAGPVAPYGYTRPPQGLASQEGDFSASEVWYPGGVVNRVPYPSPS

[3] = target: T2, ART-27 (full length, 1-157; LexA DNA binding domain fusion) (human, UniProt P0A7C2 1-202; Q9UBK9 1-157); experiment: modified yeast interaction-trap assay, liquid beta-galactosidase
T2 construct: also called LexA-ART-27; pEG202:ART-27

[4] = target: T2, ART-27 (full length, 1-157; LexA DNA …); experiment: modified yeast two-hybrid, liquid beta-galactosidase assay
[5] = target: T1, B42-AR18-500 (rat androgen receptor …); experiment: modified yeast two-hybrid, plate beta-galactosidase assay
[6] = target: T2, ART-27 (full length, 1-157; LexA DNA …); experiment: as above
[7] = target: T3, ART-5 (LexA DNA binding domain fusion) (UniProt P0A7C2 1-202, limits assumed); experiment: as above
T3 construct: Clone from an LNCaP prostate cancer cell cDNA library
T3 sequence: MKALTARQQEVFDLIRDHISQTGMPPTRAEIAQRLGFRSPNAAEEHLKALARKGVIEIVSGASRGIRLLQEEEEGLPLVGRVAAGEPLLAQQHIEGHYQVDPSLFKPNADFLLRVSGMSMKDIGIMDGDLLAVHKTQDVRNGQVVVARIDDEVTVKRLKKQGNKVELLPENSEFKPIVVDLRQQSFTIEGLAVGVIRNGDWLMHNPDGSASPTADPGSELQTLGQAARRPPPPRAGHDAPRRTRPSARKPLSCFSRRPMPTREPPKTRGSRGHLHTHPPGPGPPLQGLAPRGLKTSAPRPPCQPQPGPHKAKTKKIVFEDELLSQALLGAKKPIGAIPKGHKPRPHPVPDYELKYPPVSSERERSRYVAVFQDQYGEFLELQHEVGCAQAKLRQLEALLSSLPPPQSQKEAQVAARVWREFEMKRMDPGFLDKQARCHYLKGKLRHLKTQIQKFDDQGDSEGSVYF

[8] = target: B1; experiment: as above

In the case of “LexA vector alone (from UniProt P0A7C2 1-202)”, the quantitative liquid beta-galactosidase assay (modified yeast two-hybrid) (unit of activity) [1] is reported as 1.

B1: binds [2].

B2: binds [3].

B3: no binding [4].

B4: no binding [5].

B5: no binding [5].

B6: no binding [5].

B7: no binding [5].

B8: no binding [5].

B9: no binding [5].

B10: no binding [6]; no binding [7]; no binding [8].
